Source: patent publication CN109021104A (SHANGHAI CHEMPARTNER CO LTD; GATEWAY BIOTECHNOLOGY SHANGHAI …, dated 2018)

Biological target: T1, 人源PDGFRβ全长 (human PDGFRβ, full length, on cells) (human, UniProt P09619 33-1106)
T1 construct: whole, on cells; also called HEK293-hPDGFRβ稳定细胞株; 细胞表面的PDGFRβ
Experiment: flow cytometry on HEK293-hPDGFRβ cells, Alexa488 secondary antibody

T1 sequence (P09619 33-1106): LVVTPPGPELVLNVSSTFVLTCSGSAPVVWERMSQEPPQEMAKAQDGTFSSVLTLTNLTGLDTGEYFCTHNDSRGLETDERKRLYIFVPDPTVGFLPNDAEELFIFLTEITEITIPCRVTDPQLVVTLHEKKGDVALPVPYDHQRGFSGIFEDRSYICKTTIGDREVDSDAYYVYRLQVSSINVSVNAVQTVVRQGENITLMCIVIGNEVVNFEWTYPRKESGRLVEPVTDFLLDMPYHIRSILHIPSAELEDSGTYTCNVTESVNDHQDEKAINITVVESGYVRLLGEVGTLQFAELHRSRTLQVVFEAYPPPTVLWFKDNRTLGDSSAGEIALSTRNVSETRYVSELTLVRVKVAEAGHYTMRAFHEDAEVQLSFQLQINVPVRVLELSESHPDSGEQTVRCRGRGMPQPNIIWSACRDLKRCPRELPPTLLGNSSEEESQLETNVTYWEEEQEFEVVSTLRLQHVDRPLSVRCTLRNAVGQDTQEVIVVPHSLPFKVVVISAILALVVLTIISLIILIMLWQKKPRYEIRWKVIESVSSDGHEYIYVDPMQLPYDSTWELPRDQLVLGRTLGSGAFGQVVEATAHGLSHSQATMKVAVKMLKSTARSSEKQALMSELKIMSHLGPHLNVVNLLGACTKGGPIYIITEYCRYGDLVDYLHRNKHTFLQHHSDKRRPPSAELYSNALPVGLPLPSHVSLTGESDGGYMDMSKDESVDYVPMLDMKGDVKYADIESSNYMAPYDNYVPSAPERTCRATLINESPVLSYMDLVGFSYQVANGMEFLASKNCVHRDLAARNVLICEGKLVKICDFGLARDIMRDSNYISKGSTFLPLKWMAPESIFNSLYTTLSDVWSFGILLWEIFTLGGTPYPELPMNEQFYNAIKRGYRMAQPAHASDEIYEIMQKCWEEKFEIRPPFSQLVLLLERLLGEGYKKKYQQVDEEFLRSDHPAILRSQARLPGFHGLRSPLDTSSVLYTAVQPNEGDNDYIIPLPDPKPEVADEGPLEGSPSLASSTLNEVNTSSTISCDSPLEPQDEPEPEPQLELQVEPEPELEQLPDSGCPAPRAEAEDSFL

B1: 39E10E12B3 (antibody, V domains shown)
VH: EVQLVESGGGVVQPGRSLRLSCAASGFTFSSYGMHWVRQAPGKGLEWVAVIWYDGSNKYYADSVKGRFTISRDNSKNTLYLQMNSLRAEDTAVYYCAVTGDVDYWGQGTLVTVSS
notes: Heavy-chain-only monoclonal antibody (no light chain), purified from a hybridoma made from HCAb transgenic mice; also called 重链抗体39E10E12B3; PDGFRβ抗体
**Q.** Does B1 bind?
**A.** binds
